Laboratory results: patent publication US20220195407, “OPTIMIZATION OF ENGINEERED MEGANUCLEASES FOR RECOGNITION SEQUENCES” (Precision BioSciences, Inc., published 2022)
Substitutions are numbered along the chain they refer to.

Assays:
Assay in all cases: cell_activity; CHO iGFFP reporter
LOX 3-4m.1687 = target: T1, LOX 3-4m.1687 (artificial (I-CreI derived))
T1 chain: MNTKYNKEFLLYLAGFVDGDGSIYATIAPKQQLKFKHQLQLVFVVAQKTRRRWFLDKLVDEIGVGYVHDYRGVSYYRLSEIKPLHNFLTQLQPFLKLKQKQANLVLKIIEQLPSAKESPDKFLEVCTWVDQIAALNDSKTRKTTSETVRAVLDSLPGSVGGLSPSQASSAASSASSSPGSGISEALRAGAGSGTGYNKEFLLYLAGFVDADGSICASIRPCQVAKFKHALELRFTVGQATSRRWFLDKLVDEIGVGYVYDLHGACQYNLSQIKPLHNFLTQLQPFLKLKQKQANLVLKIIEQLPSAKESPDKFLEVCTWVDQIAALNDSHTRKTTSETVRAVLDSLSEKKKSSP
From the text: (§1) A CHO cell reporter system (see WO/2012/167192, FIG. 3) was used to determine whether the engineered meganucleases generated in these studies could recognize and cleave the modified LOX 3-4 recognition sequences in Table 87. To perform the assay, a pair of CHO cell reporter lines were produced, which carried a non-functional Green Fluorescent Protein (GFP) gene expression cassette integrated into the genome of the cell. The GFP gene in each cell line was interrupted by a pair of recognition sequences such that intracellular cleavage of either recognition sequence by a meganuclease would stimulate a homologous recombination event resulting in a functional GFP gene. In both cell lines, one of the recognition sequences was derived from the LOX 3-4 recognition sequence (i.e., those sequences disclosed in Table 87), and the second recognition sequence was specifically recognized by a control meganuclease called “CHO 23/24.” CHO reporter cells comprising a recognition sequence derived from the LOX 3-4 recognition sequence and the CHO 23/24 recognition sequence are referred to herein as “test cells.”
(§2) Novel engineered meganucleases derived from the LOX 3-4x.109 meganuclease were prepared by making amino acid substitutions at one or more positions in the first subunit and one or more positions in the second subunit. These engineered meganucleases were then evaluated for cleavage of the LOX 3-4 recognition sequence modified to have a GCAT center sequence (SEQ ID NO: 292) in the CHO reporter assay according to Example 1. The substitutions in each subunit are provided in Tables 151 and 152, respectively. Novel meganucleases which were modified to comprise the residues recited in the tables below continued to cleave the LOX 3-4 recognition sequence having a GCAT four base pair center sequence.

LOX 3-4m.1601 = target: T2, LOX 3-4m.1601 (artificial (I-CreI derived))
T2 chain: T1 chain with G19A, R50V, R71H, E80Q, A210G, S241R, H262R, A264G, Q271E, H330K
From the text: as §1, §2

LOX 3-4m.1689 = target: T3, LOX 3-4m.1689 (artificial (I-CreI derived))
T3 chain: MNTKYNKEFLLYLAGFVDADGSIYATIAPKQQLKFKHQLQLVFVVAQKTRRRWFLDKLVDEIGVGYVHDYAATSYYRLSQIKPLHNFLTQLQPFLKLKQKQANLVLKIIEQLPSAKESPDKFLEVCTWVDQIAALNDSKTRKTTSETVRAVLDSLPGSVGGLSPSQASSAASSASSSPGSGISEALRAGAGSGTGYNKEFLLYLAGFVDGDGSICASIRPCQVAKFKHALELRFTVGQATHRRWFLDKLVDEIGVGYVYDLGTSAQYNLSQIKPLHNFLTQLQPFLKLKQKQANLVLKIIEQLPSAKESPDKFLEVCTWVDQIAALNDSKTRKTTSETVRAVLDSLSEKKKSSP
From the text: as §1, §2

LOX 3-4m.1679 = target: T4, LOX 3-4m.1679 (artificial (I-CreI derived))
T4 chain: T3 chain with A71R, A72N, A239I, H241K, T263N, A265C, Q271E
From the text: as §1, §2

LOX 3-4m.1745 = target: T5, LOX 3-4m.1745 (artificial (I-CreI derived))
T5 chain: T3 chain with A71S, A72G, A239T, H241R, T263R, S264I, A265S, K330R
From the text: as §1
(§3) Novel engineered meganucleases derived from the LOX 3-4x.109 meganuclease were prepared by making amino acid substitutions at one or more positions in the first subunit and one or more positions in the second subunit. These engineered meganucleases were then evaluated for cleavage of the LOX 3-4 recognition sequence modified to have a GCGA center sequence (SEQ ID NO: 314) in the CHO reporter assay according to Example 1.

LOX 3-4m.1780 = target: T6, LOX 3-4m.1780 (artificial (I-CreI derived))
T6 chain: T3 chain with A71S, A72G, T73V, Q80E, A239Q, H241R, T263R, S264I, A265S, K330R
From the text: as §1, §3

LOX 3-4m.1782 = target: T7, LOX 3-4m.1782 (artificial (I-CreI derived))
T7 chain: T1 chain with G72Q, S241R, H262G, G263R, A264I, C265S, H330R
From the text: as §1, §3

LOX 3-4m.1781 = target: T8, LOX 3-4m.1781 (artificial (I-CreI derived))
T8 chain: T3 chain with A71N, A72R, T73V, A239S, H241R, T263R, S264I, A265S, Q271E, K330R
From the text: as §1, §3

LOX 3-4 M.6 = target: T9, LOX 3-4 M.6 (artificial (I-CreI derived))
T9 chain: T3 chain with K48R, A71N, T73V, K139R, A239K, H241Q, T263S, S264V, A265S, N268T
From the text: as §1
as §2, with “first” for “first subunit and one or more positions in the second”, “GTAA” for “GCAT”, “358)” for “292)”, “1.” for “1. The substitutions in each subunit are provided in Tables 151 and 152, respectively.”, “were capable of cleaving” for “continued to cleave”

LOX 3-4 M.23 = target: T10, LOX 3-4 M.23 (artificial (I-CreI derived))
T10 chain: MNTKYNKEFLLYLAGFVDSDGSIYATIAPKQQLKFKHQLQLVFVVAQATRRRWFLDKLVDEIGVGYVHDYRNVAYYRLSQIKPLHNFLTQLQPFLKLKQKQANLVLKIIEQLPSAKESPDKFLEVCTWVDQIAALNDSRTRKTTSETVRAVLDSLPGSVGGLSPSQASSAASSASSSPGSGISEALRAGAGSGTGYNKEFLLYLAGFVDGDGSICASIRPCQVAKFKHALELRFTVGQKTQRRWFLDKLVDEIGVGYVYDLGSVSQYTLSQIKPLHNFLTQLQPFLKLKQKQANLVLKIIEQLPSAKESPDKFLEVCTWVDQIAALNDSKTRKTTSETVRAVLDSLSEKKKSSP
From the text: as §1
as §2, with “first” for “first subunit and one or more positions in the second”, “GTAA” for “GCAT”, “358)” for “292)”, “1.” for “1. The substitutions in each subunit are provided in Tables 151 and 152, respectively.”, “were capable of cleaving” for “continued to cleave”

LOX 3-4 M.15 = target: T11, LOX 3-4 M.15 (artificial (I-CreI derived))
T11 chain: T10 chain with S19A, A48S, R50A, R71G, N72T, A74S, R139K
From the text: as §1
as §2, with “first” for “first subunit and one or more positions in the second”, “GTAA” for “GCAT”, “358)” for “292)”, “1.” for “1. The substitutions in each subunit are provided in Tables 151 and 152, respectively.”, “were capable of cleaving” for “continued to cleave”

B1: LOX 3-4 GCAT (dsDNA)
DNA 1: GTATAGCATGCATTATACGAAG
DNA 2: CTTCGTATAATGCATGCTATAC
- activity (LOX 3-4m.1687): 10.9 % GFP
- activity (LOX 3-4m.1601): 10.9 % GFP
- activity (LOX 3-4m.1689): 11.2 % GFP
- activity (LOX 3-4m.1679): 10.8 % GFP

B2: LOX 3-4 GCGA (dsDNA)
DNA 1: GTATAGCATGCGATATACGAAG
DNA 2: CTTCGTATATCGCATGCTATAC
- activity (LOX 3-4m.1745): 5.13 % GFP
- activity (LOX 3-4m.1780): 6.53 % GFP
- activity (LOX 3-4m.1782): 5.45 % GFP
- activity (LOX 3-4m.1781): 6.58 % GFP

B3: LOX 3-4 GTAA (dsDNA)
DNA 1: GTATAGCATGTAATATACGAAG
DNA 2: CTTCGTATATTACATGCTATAC
- activity (LOX 3-4 M.6): 11.4 % GFP
- activity (LOX 3-4 M.23): 13.2 % GFP
- activity (LOX 3-4 M.15): 11.5 % GFP
